# The supplement of paper PMC7125110
# ± gives the standard error. For some assays here: Variants at the floor of the assay were thinned out.
# B1: glmS ribozyme (parent)
# chain: AUAAAAGCGCCAGAACUACAGAAAUGUAGUUGACGAGGAGGAGGUUUAUCGAAUUUUCGGCGGAUGCCUCCAAA
# Legend:
# Details in all cases: with glucosamine-6-phosphate
# glucosamine-6-phosphate [1] = variants of: B1; experiment: kcat; higher = faster cleavage; RNA array
# In short: (§1)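 Ribozyme variants carrying barcodes were transcribed in situ on sequenced MiSeq chips by E. coli RNA polymerase and tracked at 37 °C with a hybridised Cy3 probe. They were exposed to 40 μM to 10 mM glucosamine-6-phosphate in HEPES/KCl/Mg(OAc)2 buffer. kobs came from exponential decay fits of normalised per-tile medians, and kcat and KM from weighted Michaelis–Menten fits.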
# glucosamine-6-phosphate [2] = variants of: B1; experiment: KM; higher = weaker cofactor use; RNA array
# In short: as §1
# glucosamine-6-phosphate [3] = variants of: B1; experiment: self-cleavage kobs at 640 uM GlcN6P; higher = faster cleavage; RNA array
# In short: as §1
# glucosamine-6-phosphate [4] = variants of: B1; experiment: self-cleavage kobs at 10000 uM GlcN6P; higher = faster cleavage; RNA array
# In short: as §1
# glucosamine-6-phosphate [5] = variants of: B1; experiment: self-cleavage kobs at 40 uM GlcN6P; higher = faster cleavage; RNA array
# In short: as §1
# glucosamine-6-phosphate [6] = variants of: B1; experiment: self-cleavage kobs at 160 uM GlcN6P; higher = faster cleavage; RNA array
# In short: as §1
# glucosamine-6-phosphate [7] = variants of: B1; experiment: self-cleavage kobs at 2500 uM GlcN6P; higher = faster cleavage; RNA array
# In short: as §1
Variant,kcat (glucosamine-6-phosphate [1]),KM (glucosamine-6-phosphate [2]),self-cleavage kobs at 640 uM GlcN6P (glucosamine-6-phosphate [3]),self-cleavage kobs at 10000 uM GlcN6P (glucosamine-6-phosphate [4]),self-cleavage kobs at 40 uM GlcN6P (glucosamine-6-phosphate [5]),self-cleavage kobs at 160 uM GlcN6P (glucosamine-6-phosphate [6]),self-cleavage kobs at 2500 uM GlcN6P (glucosamine-6-phosphate [7])
C58G G66C,2.6e-05 ± 1.4e-06 s⁻¹,2200 ± 540 µM,< 1e-05 s⁻¹,,,,
G13U G66U,3.6e-05 ± 2.5e-06 s⁻¹,3580 ± 630 µM,,2.65e-05 ± 1.1e-05 s⁻¹,,,
U46A C61A,1.2e-05 ± 3e-07 s⁻¹,1800 ± 100 µM,,,,,
A33C U57A,2.16e-05 ± 4.2e-06 s⁻¹,,,,,,
U47G U69G,5.3e-05 ± 8.9e-06 s⁻¹,,7.19e-05 ± 9.1e-06 s⁻¹,4.09e-05 ± 5.2e-06 s⁻¹,4.11e-05 ± 9e-06 s⁻¹,5.87e-05 ± 1.3e-05 s⁻¹,7.13e-05 ± 9.6e-06 s⁻¹
C16G A48U,0.000805 ± 0.0004 s⁻¹,,,4.45e-05 ± 9.8e-06 s⁻¹,< 1e-05 s⁻¹,< 1e-05 s⁻¹,
U54C U57C,0.000143 ± 2e-05 s⁻¹,3450 ± 1100 µM,,0.000105 ± 1.6e-05 s⁻¹,,,6.28e-05 ± 1.1e-05 s⁻¹
A14U A15C,9.41e-05 ± 8.4e-06 s⁻¹,1880 ± 510 µM,3.12e-05 ± 1.3e-05 s⁻¹,8.11e-05 ± 1.1e-05 s⁻¹,,,5.02e-05 ± 9.3e-06 s⁻¹
A14U A15G,0.0123 ± 0.0018 s⁻¹,2410 ± 520 µM,0.00234 ± 0.00043 s⁻¹,0.00944 ± 0.0012 s⁻¹,0.000225 ± 4e-05 s⁻¹,0.000672 ± 0.00015 s⁻¹,0.0077 ± 0.0012 s⁻¹
